According to US20210062131A1, “In Vitro, Multi-Niche, Bone Marrow-on-a-Chip” (Georgia Tech Research Corporation, priority 2018, published 2021):

System: CXCL12
Test: CXCL12 expression by immunohistochemistry in BMOC device after adding mobilizing agents
Type: cell-based, human
Details: BMOC with OBs, HUVECs and MSCs; G-CSF and AMD3100 added on day 5, cells fixed and stained on day 6; IHC
Method: Cells were fixed and stained on day 6. CXCL12 expression was measured by immunohistochemistry (IHC); n=2-3 devices (× 5 ROI each), mean±SD.
Staining procedure for devices was adapted from previously reported approaches. Devices were washed with PBS, fixed with 4% formaldehyde (ThermoFisher), and permeabilized with 0.1% Triton X-100. Prior to staining, cells were blocked with 5% BSA, 3% goat serum in PBS. Primary antibodies were diluted (1:100) in blocking buffer and devices were stained overnight at 4° C. Devices were then washed with 0.1% BSA in PBS and stained with secondary antibodies (1:200) diluted in wash buffer for 3 hours at RT. Devices were washed with wash buffer and then stained with DAPI (1:1000) and Phalloidin AF647 (1:40).

B1: G-CSF: mobilizing agent added to the BMOC device (protein, UniProt P09919 31-207, looked up)
Granulocyte …: TPLGPASSLPQSFLLKCLEQVRKIQGDGAALQEKLVSECATYKLCHPEELVLLGHSLGIPWAPLSSCPSQALQLAGCLSQLHSGLFLYQGLLQALEGISPELGPTLDTLQLDVADFATTIWQQMEELGMAPALQPTQGAMPAFASAFQRRAGGVLVASHLQSFLEVSYRVLRHLAQP
expression of cytokine CXCL12: decrease expression of cytokine CXCL12
